The assay deals with T1, GST-AC8 1–77 (rat, UniProt P40146 1-77).
T1 sequence (looked up): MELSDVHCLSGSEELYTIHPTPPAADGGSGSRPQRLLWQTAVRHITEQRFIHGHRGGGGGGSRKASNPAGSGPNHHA
Description: pull-down.

Consider 1 molecule from paper PMC2888445 (The Journal of Biological Chemistry, 2010).

B1: AKAP150-HA (natural protein, rat, UniProt P24587 1-714, looked up)
chain: METSVSEIQIETKDEKRPEAASPQKERQERKTATLCFKRRKKVNKKKAKAGSKTAEETEKHAPEAGGSGQRQPAGAWASIKRLVTHRKPSESAEKQKPSEAEMQPEDGALPKKKTKSKLKIPCIRFSRGAKRSRPSKLTEDSGYVRVQGEADDLEIKAQIQPDEQATQAKSTQGLQEDVIVRDGKEIQESHISNNVISGEHVIGIELELEKESSALRMRTPGSEKEAKVILVKQGVQVQEASVLENSAADSPQPVTSTAPLSPATTHQLGLEEPSDSIRESAPSGKDDGRRKTAAEEKKSGETALGQAEEASSVSQADKSVLSQAEEATVGHTEEATVIQAQSQAKEGKLSQAEEATVAQAKETVLSQAEEVKLSQIEEPAISQAKKATVGQAKEAYVSQAEEAIVGHTEKATMGQAEEATVGHIEKTTVGQAEEATVGQAEEATVGQAEEATVGQAEEATVGQAEEATVGQAGEATVSHIEKTTVGQAEEAIVGQAEEATVGQAEEATVGQAEEATVGQAEEATVDQAEEATVGQAEEATVGQAGEAAVGQAEEAIVAQAEEATVGQAGEATVGQAEKATVGQAEEPIVGQAEETVLRHASDLKVNGVDAEKPRSEESKRMEPIAIIITDTEISEFDVKKSKNVPKQFLISMENEQVGVFANDSDFEGRTSEQYETLLIETASSLVKNAIELSVEQLVNEMVSEDNQINTLFQ
For B1, the “fold interaction against GST-AC8 73–179 (densitometry, HA band relative to GST)” value amounted to 1.6 fold.
